Results taken from publication PMC6082870, “Molecular architecture of the multifunctional collagen lysyl hydroxylase and glycosyltransferase LH3” (Nature Communications, 2018).
Positions count from the first letter of the chain named. Numbers in names are those of the source.

Key:
[1] = biological target: the molecule itself; assay: not stated; oligomeric assembly of LH3 N223S, Supplementary Fig. 11B; method not given
[2] = biological target: the molecule itself; assay: SEC; analytical size exclusion, Superdex 200 5/150 GL, 25 mM HEPES/NaOH, 200 mM NaCl, pH 8.0
[3] = biological target: the molecule itself; assay: SEC-SAXS; 50 uL LH3 at 4 mg/mL on Superdex 200 PC 3.2/300 Increase, 25 mM HEPES/NaOH, 200 mM NaCl, pH 8.0, online SAXS at ESRF BM29

B1: LH3 N223S pathogenic variant (enzyme, human, UniProt O60568 25-738, looked up)
chain: SDRPRGRDPVNPEKLLVITVATAETEGYLRFLRSAEFFNYTVRTLGLGEEWRGGDVARTVGGGQKVRWLKKEMEKYADREDMIIMFVDSYDVILAGSPTELLKKFVQSGSRLLFSAESFCWPEWGLAEQYPEVGTGKRFLNSGGFIGFATTIHQIVRQWKYKDDDDDQLFYTRLYLDPGLREKLSLNLDHKSRIFQNLSGALDEVVLKFDRNRVRIRNVAYDTLPIVVHGNGPTKLQLNYLGNYVPNGWTPEGGCGFCNQDRRTLPGGQPPPRVFLAVFVEQPTPFLPRFLQRLLLLDYPPDRVTLFLHNNEVFHEPHIADSWPQLQDHFSAVKLVGPEEALSPGEARDMAMDLCRQDPECEFYFSLDADAVLTNLQTLRILIEENRKVIAPMLSRHGKLWSNFWGALSPDEYYARSEDYVELVQRKRVGVWNVPYISQAYVIRGDTLRMELPQRDVFSGSDTDPDMAFCKSFRDKGIFLHLSNQHEFGRLLATSRYDTEHLHPDLWQIFDNPVDWKEQYIHENYSRALEGEGIVEQPCPDVYWFPLLSEQMCDELVAEMEHYGQWSGGRHEDSRLAGGYENVPTVDIHMKQVGYEDQWLQLLRTYVGPMTESLFPGYHTKARAVMNFVVRYRPDEQPSLRPHHDSSTFTLNVALNHKGLDYEGGGCRFLRYDCVISSPRKGWALLHPGRLTHYHEGLPTTWGTRYIMVSFVDP
notes: human LH3 (PLOD3), GenBank BC011674.2, devoid of the N-terminal signal peptide, with the pathogenic mutation N223S; The mutation was reported to add an N-linked glycosylation on Asn221; not shown: 6xHis, N-terminal, cleaved
For B1, the “stoichiometry N” value [1] was 2.

B2: LH3 L715D mutant (enzyme, human, UniProt O60568 25-738, looked up)
chain: B1 chain with S199N, L691D
notes: human LH3 (PLOD3), GenBank BC011674.2, devoid of the N-terminal signal peptide, with L715D; not shown: 6xHis, N-terminal, cleaved
B2: binds [2].

B3: human lysyl hydroxylase 3 (LH3/PLOD3), wild type (enzyme, UniProt O60568 25-738, looked up)
chain: B1 chain with S199N
modifications: N-linked glycosylations at Asn63 and Asn548
notes: a vector signal peptide, 6xHis tag and TEV site precede the BamHI site, so a few vector residues may remain after TEV cleavage; also called wild-type LH3; full-length human LH3; not shown: 6xHis, N-terminal, cleaved
In the case of B3, the “stoichiometry N” value [3] is reported as 2.

B4: LH3 W148N-L150T glycosylated control mutant (enzyme, human, UniProt O60568 25-738, looked up)
chain: B1 chain with W124N, L126T, S199N
modifications: additional glycosylation at the compact N-terminal (crystal contact) interface, introduced by W148N-L150T
notes: human LH3 (PLOD3), GenBank BC011674.2, devoid of the N-terminal signal peptide, with W148N and L150T; not shown: 6xHis, N-terminal, cleaved
With B4 the “stoichiometry N” value [2] was 2.
